Blank lines part the entries; values can stand above or below the sequence they belong to.
Assays:
HLA-A*68:02 = assay: IEDB peptide-MHC binding, purified MHC/competitive/radioactivity; filed as Kd, often an IC50 or EC50 that approximates it; ≥ and ≤ were set here for values at or beyond the usual limits of such assays
HLA-A*02:01 [1] = assay: IEDB peptide-MHC binding, purified MHC/direct/fluorescence; filed as Kd, often an IC50 or EC50 that approximates it; ≥ and ≤ were set here for values at or beyond the usual limits of such assays; conditions: source organism: Juquitiba virus
HLA-A*03:01 [2] = assay: as above; conditions: source organism: Araucaria virus
HLA-A*26:01 [3] = assay: IEDB peptide-MHC binding, purified MHC/competitive/fluorescence; filed as Kd, often an IC50 or EC50 that approximates it; ≥ and ≤ were set here for values at or beyond the usual limits of such assays; conditions: source organism: Hantavirus HPR/02-73
HLA-B*18:01 [4] = assay: as above; conditions: source organism: Hantavirus HPR/02-73
HLA-B*27:03 = assay: as above; conditions: source organism: Hantavirus HPR/02-73
HLA-B*51:01 [5] = assay: as above; conditions: source organism: Hantavirus HPR/02-73
HLA-B*57:01 = assay: as above; conditions: source organism: Hantavirus HPR/02-73
HLA-A*02:01 [6] = assay: IEDB peptide-MHC binding, purified MHC/competitive/radioactivity; filed as Kd, often an IC50 or EC50 that approximates it; ≥ and ≤ were set here for values at or beyond the usual limits of such assays
HLA-A*23:01 = assay: as above; conditions: source organism: Dengue virus 1 Brazil/97-11/1997
HLA-A*02:02 = assay: as above
HLA-A*02:03 = assay: as above
HLA-A*02:06 = assay: as above
HLA-B*44:03 = assay: as above; conditions: source organism: Dengue virus 1 Brazil/97-11/1997
HLA-B*18:01 [7] = assay: IEDB peptide-MHC binding, purified MHC/direct/fluorescence; filed as Kd, often an IC50 or EC50 that approximates it; ≥ and ≤ were set here for values at or beyond the usual limits of such assays; conditions: source organism: Yellow fever virus
HLA-A*03:01 [8] = assay: IEDB peptide-MHC binding, purified MHC/competitive/radioactivity; filed as Kd, often an IC50 or EC50 that approximates it; ≥ and ≤ were set here for values at or beyond the usual limits of such assays; conditions: source organism: Vaccinia virus WR
HLA-A*11:01 = assay: as above; conditions: source organism: Vaccinia virus WR
HLA-A*31:01 = assay: as above; conditions: source organism: Vaccinia virus WR
HLA-A*33:01 = assay: as above; conditions: source organism: Vaccinia virus WR
HLA-A*68:01 = assay: as above; conditions: source organism: Vaccinia virus WR
HLA-B*07:02 = assay: as above; conditions: source organism: Vaccinia virus WR
HLA-B*35:01 = assay: as above; conditions: source organism: Vaccinia virus WR
HLA-B*51:01 [9] = assay: as above; conditions: source organism: Vaccinia virus WR
HLA-B*53:01 = assay: as above; conditions: source organism: Vaccinia virus WR
HLA-B*54:01 = assay: as above; conditions: source organism: Vaccinia virus WR
HLA-A*29:02 = assay: as above; conditions: source organism: Vaccinia virus WR
HLA-A*24:02 = assay: as above; conditions: source organism: Dengue virus 4 Philippines/H241/1956
HLA-A*01:01 = assay: as above; conditions: source organism: Dengue virus 2 Jamaica/1409/1983
HLA-A*26:01 [10] = assay: as above; conditions: source organism: Dengue virus 2 Jamaica/1409/1983
[11] = source organism: Dengue virus 4 Philippines/H241/1956
[12] = source organism: Lassa virus Josiah
[13] = source organism: Dengue virus 3 Martinique/1243/1999
[14] = source organism: Vaccinia virus WR
[15] = source organism: Dengue virus 2 Jamaica/1409/1983
[16] = source organism: Human immunodeficiency virus type 1 (SF33 ISOLATE)
[17] = source organism: Trypanosoma cruzi

Kd (HLA-A*68:02; source organism: Homo sapiens): ≥ 60000 nM
Sequence: QLQVTEREEV

Sequence: DTMTYKCPRI
Kd (HLA-A*68:02; source organism: Dengue virus 1 Brazil/97-11/1997): 64 nM

Sequence: YILGFAIPI
Kd (HLA-A*02:01 [1]): 0.3 nM
Kd (HLA-A*03:01 [2]): ≥ 20000 nM
Kd (HLA-A*26:01 [3]): ≥ 20000 nM
Kd (HLA-B*18:01 [4]): ≥ 20000 nM
Kd (HLA-B*27:03): ≥ 20000 nM
Kd (HLA-B*51:01 [5]): ≥ 20000 nM
Kd (HLA-B*57:01): ≥ 20000 nM

Sequence: WTLYAVATTI
Kd (HLA-A*68:02; [11]): 10 nM

Sequence: IMTSYQYLII
Kd (HLA-A*02:01 [6]; [12]): 1000 nM

Sequence: CWCNATDTW
Kd (HLA-A*23:01): 711 nM

Sequence: GLVGLVTFLL
Kd (HLA-A*02:01 [6]; [12]): 49 nM
Kd (HLA-A*02:02; [12]): 191 nM
Kd (HLA-A*02:03; [12]): 122 nM
Kd (HLA-A*02:06; [12]): 2060 nM
Kd (HLA-A*68:02; [12]): 214 nM

Sequence: YLSTERDHV
Kd (HLA-A*02:01 [6]; source organism: Variola virus): 100 nM

Sequence: SASSMINGV
Kd (HLA-A*68:02; [13]): 28.9 nM

Sequence: ETPTWNRKEL
Kd (HLA-A*68:02; [13]): 872 nM

Kd (HLA-A*68:02; source organism: Homo sapiens): 4450 nM
Sequence: WLVLRINKAL

Sequence: SFIEVKTCIW
Kd (HLA-A*23:01): 17.3 nM
Kd (HLA-B*44:03): 1260 nM

Sequence: KEVSGVKGF
Kd (HLA-B*18:01 [7]): 500 nM

Sequence: ATLMKTSCSK
Kd (HLA-A*02:01 [6]; [14]): ≥ 69400 nM
Kd (HLA-A*02:02; [14]): ≥ 70000 nM
Kd (HLA-A*02:03; [14]): ≥ 70400 nM
Kd (HLA-A*02:06; [14]): ≥ 69800 nM
Kd (HLA-A*03:01 [8]): 33.6 nM
Kd (HLA-A*11:01): 19.9 nM
Kd (HLA-A*31:01): 411 nM
Kd (HLA-A*33:01): ≥ 70000 nM
Kd (HLA-A*68:01): 4950 nM
Kd (HLA-A*68:02; [14]): ≥ 69800 nM
Kd (HLA-B*07:02): ≥ 21600 nM
Kd (HLA-B*35:01): ≥ 69900 nM
Kd (HLA-B*51:01 [9]): ≥ 69600 nM
Kd (HLA-B*53:01): ≥ 69900 nM
Kd (HLA-B*54:01): ≥ 69900 nM

Sequence: GLYNFATCGL
Kd (HLA-A*02:02; [12]): 5.12 nM
Kd (HLA-A*02:03; [12]): 2.27 nM
Kd (HLA-A*02:06; [12]): 218 nM
Kd (HLA-A*68:02; [12]): ≥ 5000 nM

Sequence: GARVIWMDAY
Kd (HLA-A*03:01 [8]): 1020 nM
Kd (HLA-A*11:01): 5510 nM
Kd (HLA-A*29:02): ≥ 55600 nM
Kd (HLA-A*31:01): 220 nM
Kd (HLA-A*33:01): 505 nM
Kd (HLA-A*68:01): 978 nM

Sequence: RTVFFVLMML
Kd (HLA-A*68:02; [11]): 17.9 nM

Sequence: PYMPTVIEEL
Kd (HLA-A*24:02): 211 nM

Sequence: TVTGGIFLFL
Kd (HLA-A*68:02; [15]): 53.6 nM

Sequence: ALIRILQQL
Kd (HLA-A*02:01 [6]; [16]): 28.1 nM
Kd (HLA-A*02:02; [16]): 3.31 nM
Kd (HLA-A*02:03; [16]): 2.99 nM
Kd (HLA-A*02:06; [16]): 8.2 nM
Kd (HLA-A*68:02; [16]): ≥ 65300 nM

Sequence: LVGLVTFLL
Kd (HLA-A*02:01 [6]; [12]): 641 nM

Sequence: FANYNFTLV
Kd (HLA-A*02:02; [17]): 22.6 nM
Kd (HLA-A*02:03; [17]): ≥ 78100 nM
Kd (HLA-A*02:06; [17]): 0.00585 nM
Kd (HLA-A*68:02; [17]): 0.0102 nM

Sequence: LLGMWGIAAI
Kd (HLA-A*02:01 [6]; [17]): 14.3 nM
Kd (HLA-A*02:02; [17]): 24.3 nM
Kd (HLA-A*02:03; [17]): 3.16 nM
Kd (HLA-A*02:06; [17]): 9.58 nM
Kd (HLA-A*68:02; [17]): ≥ 42200 nM

Kd (HLA-A*02:01 [6]; source organism: Homo sapiens): 95 nM
Sequence: ILNAMITKI

Sequence: MTTEDMLAV
Kd (HLA-A*01:01): 2700 nM
Kd (HLA-A*02:06; [15]): 7.01 nM
Kd (HLA-A*26:01 [10]): 623 nM
Kd (HLA-A*68:02; [15]): 10.8 nM

Source: the Immune Epitope Database (IEDB)
